In the supplement of paper PMC10567573:

B1: FCHO1 (parent)
chain: FTSSPSPFSSSSPENVEDSGLDSP

Variants of: B1
Assay: protein stability index of a GFP-peptide fusion (GPS, HEK-293T) (PSI 1-6); higher = more stable
Conditions: c terminus: a fixed tail appended
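Further: lentivirally expressed fusions sorted by FACS into six bins by GFP to DsRed ratio, PSI derived from sequencing read proportions per bin multiplied by bin number.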

| Variant | protein stability index |
| --- | --- |
| FTSSPSPFSSSSPENVELSGLDSP [D18L] | 2.05 |
| FTSSPSPFSSSSPENVECSGLDSP [D18C] | 2.17 |
| FTSSPSPFSSSSPENVEMSGLDSP [D18M] | 1.99 |
| FTSSPSPFSSSSPENVESSGLDSP [D18S] | 1.82 |
| FTSSPSPFSSSSPENVERSGLDSP [D18R] | 1.6 |
| FTSSPSPFSSSSPENVENSGLDSP [D18N] | 2.42 |
| FTSSPSPFSSSSPENVEISGLDSP [D18I] | 2.01 |
| FTSSPSPFSSSSPENVEPSGLDSP [D18P] | 2.01 |
| FTSSPSPFSSSSPENVEFSGLDSP [D18F] | 2.26 |
| FTSSPSPFSSSSPENVEGSGLDSP [D18G] | 1.83 |
| FTSSPSPFSSSSPENVEVSGLDSP [D18V] | 1.73 |
| FTSSPSPFSSSSPENVEESGLDSP [D18E] | 1.92 |
| FTSSPSPFSSSSPENVEYSGLDSP [D18Y] | 2.27 |
| FTSSPSPFSSSSPENVEASGLDSP [D18A] | 1.62 |
| FTSSPSPFSSSSPENVEKSGLDSP [D18K] | 1.91 |
| FTSSPSPFSSSSPENVEHSGLDSP [D18H] | 2.7 |
| FTSSPSPFSSSSPENVEWSGLDSP [D18W] | 1.92 |
| FTSSPSPFSSSSPENVETSGLDSP [D18T] | 2.03 |
| FTSSPSPFSSSSPENVEQSGLDSP [D18Q] | 1.93 |
| FTSSPSPFSSSSPENVCDSGLDSP [E17C] | 1.68 |
| FTSSPSPFSSSSPENVHDSGLDSP [E17H] | 1.98 |
| FTSSPSPFSSSSPENVWDSGLDSP [E17W] | 1.65 |
| FTSSPSPFSSSSPENVRDSGLDSP [E17R] | 1.86 |
| FTSSPSPFSSSSPENVADSGLDSP [E17A] | 1.5 |

| Variant | protein stability index |
| --- | --- |
| FTSSPSPFSSSSPENVYDSGLDSP [E17Y] | 2.23 |
| FTSSPSPFSSSSPENVNDSGLDSP [E17N] | 2.1 |
| FTSSPSPFSSSSPENVQDSGLDSP [E17Q] | 1.85 |
| FTSSPSPFSSSSPENVVDSGLDSP [E17V] | 1.3 |
| FTSSPSPFSSSSPENVTDSGLDSP [E17T] | 2.26 |
| FTSSPSPFSSSSPENVGDSGLDSP [E17G] | 1.96 |
| FTSSPSPFSSSSPENVMDSGLDSP [E17M] | 2.32 |
| FTSSPSPFSSSSPENVFDSGLDSP [E17F] | 2.21 |
| FTSSPSPFSSSSPENVIDSGLDSP [E17I] | 1.67 |
| FTSSPSPFSSSSPENVPDSGLDSP [E17P] | 1.8 |
| FTSSPSPFSSSSPENVDDSGLDSP [E17D] | 1.84 |
| FTSSPSPFSSSSPENVSDSGLDSP [E17S] | 2.53 |
| FTSSPSPFSSSSPENVKDSGLDSP [E17K] | 1.78 |
| FTSSPSPFSSSSPENVLDSGLDSP [E17L] | 1.88 |
| FTSSPSPFSSSSPENVEDIGLDSP [S19I] | 2.27 |
| FTSSPSPFSSSSPENVEDFGLDSP [S19F] | 2.24 |
| FTSSPSPFSSSSPENVEDAGLDSP [S19A] | 2.04 |
| FTSSPSPFSSSSPENVEDKGLDSP [S19K] | 1.95 |
| FTSSPSPFSSSSPENVEDCGLDSP [S19C] | 2.22 |
| FTSSPSPFSSSSPENVEDQGLDSP [S19Q] | 2.21 |
| FTSSPSPFSSSSPENVEDMGLDSP [S19M] | 1.5 |
| FTSSPSPFSSSSPENVEDNGLDSP [S19N] | 2.06 |
| FTSSPSPFSSSSPENVEDVGLDSP [S19V] | 2 |
| FTSSPSPFSSSSPENVEDHGLDSP [S19H] | 2.46 |

| Variant | protein stability index |
| --- | --- |
| FTSSPSPFSSSSPENVEDRGLDSP [S19R] | 2.39 |
| FTSSPSPFSSSSPENVEDDGLDSP [S19D] | 1.9 |
| FTSSPSPFSSSSPENVEDWGLDSP [S19W] | 1.57 |
| FTSSPSPFSSSSPENVEDTGLDSP [S19T] | 2.34 |
| FTSSPSPFSSSSPENVEDYGLDSP [S19Y] | 2.78 |
| FTSSPSPFSSSSPENVEDGGLDSP [S19G] | 1.64 |
| FTSSPSPFSSSSPENVEDLGLDSP [S19L] | 2.32 |
| FTSSPSPFSSSSPENVEDEGLDSP [S19E] | 1.81 |
| FTSSPSPFSSSSPENVEDPGLDSP [S19P] | 2.26 |
| FTSSPSPFSSSSPENVEDSGQDSP [L21Q] | 2.03 |
| FTSSPSPFSSSSPENVEDSGEDSP [L21E] | 1.95 |
| FTSSPSPFSSSSPENVEDSGMDSP [L21M] | 2.84 |
| FTSSPSPFSSSSPENVEDSGWDSP [L21W] | 1.7 |
| FTSSPSPFSSSSPENVEDSGIDSP [L21I] | 2.87 |
| FTSSPSPFSSSSPENVEDSGGDSP [L21G] | 2.12 |
| FTSSPSPFSSSSPENVEDSGHDSP [L21H] | 2.27 |
| FTSSPSPFSSSSPENVEDSGADSP [L21A] | 1.49 |
| FTSSPSPFSSSSPENVEDSGSDSP [L21S] | 1.81 |
| FTSSPSPFSSSSPENVEDSGNDSP [L21N] | 2.28 |
| FTSSPSPFSSSSPENVEDSGPDSP [L21P] | 2.14 |
| FTSSPSPFSSSSPENVEDSGRDSP [L21R] | 2.21 |
| FTSSPSPFSSSSPENVEDSGFDSP [L21F] | 2.07 |
| FTSSPSPFSSSSPENVEDSGKDSP [L21K] | 2.02 |
| FTSSPSPFSSSSPENVEDSGVDSP [L21V] | 2.01 |

| Variant | protein stability index |
| --- | --- |
| FTSSPSPFSSSSPENVEDSGCDSP [L21C] | 2.23 |
| FTSSPSPFSSSSPENVEDSGDDSP [L21D] | 2.06 |
| FTSSPSPFSSSSPENVEDSGTDSP [L21T] | 2.52 |
| FTSSPSPFSSSSPENVEDSTLDSP [G20T] | 3.02 |
| FTSSPSPFSSSSPENVEDSNLDSP [G20N] | 1.98 |
| FTSSPSPFSSSSPENVEDSPLDSP [G20P] | 1.86 |
| FTSSPSPFSSSSPENVEDSVLDSP [G20V] | 1.64 |
| FTSSPSPFSSSSPENVEDSMLDSP [G20M] | 2.07 |
| FTSSPSPFSSSSPENVEDSFLDSP [G20F] | 2.32 |
| FTSSPSPFSSSSPENVEDSQLDSP [G20Q] | 1.99 |
| FTSSPSPFSSSSPENVEDSILDSP [G20I] | 1.97 |
| FTSSPSPFSSSSPENVEDSALDSP [G20A] | 1.88 |
| FTSSPSPFSSSSPENVEDSKLDSP [G20K] | 2.87 |
| FTSSPSPFSSSSPENVEDSRLDSP [G20R] | 1.91 |
| FTSSPSPFSSSSPENVEDSDLDSP [G20D] | 1.88 |
| FTSSPSPFSSSSPENVEDSWLDSP [G20W] | 1.56 |
| FTSSPSPFSSSSPENVEDSHLDSP [G20H] | 2.43 |
| FTSSPSPFSSSSPENVEDSCLDSP [G20C] | 2.31 |
| FTSSPSPFSSSSPENVEDSSLDSP [G20S] | 2.09 |
| FTSSPSPFSSSSPENVEDSYLDSP [G20Y] | 2.33 |
| FTSSPSPFSSSSPENVEDSLLDSP [G20L] | 2.07 |
| FTSSPSPFSSSSPENVEDSELDSP [G20E] | 2.04 |
